T1: HY5 (His-HY5) (Solanum lycopersicum (tomato), UniProt Q9SM50 1-158)
T1 sequence: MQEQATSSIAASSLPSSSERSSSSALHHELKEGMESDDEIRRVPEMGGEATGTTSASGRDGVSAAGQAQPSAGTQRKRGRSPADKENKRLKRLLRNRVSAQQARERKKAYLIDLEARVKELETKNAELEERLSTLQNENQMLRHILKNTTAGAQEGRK

B1: LIN5 ACE probe (dsDNA)
DNA 1: GTAAATTATTACGTCAGGCTTTAT
DNA 2: ATAAAGCCTGACGTAATAATTTAC
B2: SS7 A-box probe (dsDNA)
DNA 1: GCCCGGTGTCTACGTAAGATTGACAG
DNA 2: CTGTCAATCTTACGTAGACACCGGGC
B3: VI ACE probe (dsDNA)
DNA 1: AAGAAAAAAAATGACGTTTTTCCCCTTATT
DNA 2: AATAAGGGGAAAAACGTCATTTTTTTTCTT
B4: SS1 ACE probe (dsDNA)
DNA 1: CACCCTTTAGACGTATTACAGTAG
DNA 2: CTACTGTAATACGTCTAAAGGGTG
B5: PDS C/G-box probe (dsDNA)
DNA 1: TGGTGGGACGTGTCAAATT
DNA 2: AATTTGACACGTCCCACCA
B6: PSY1 Z-box probe (dsDNA)
DNA 1: GAAATCTACGTGTCTTAA
DNA 2: TTAAGACACGTAGATTTC
B7: LIN6 A-box probe (dsDNA)
DNA 1: CGCAATTAAATACGTAAGGGCTTTGA
DNA 2: TCAAAGCCCTTACGTATTTAATTGCG

These binders were tested against T1, HY5 (His-HY5) (assay: EMSA; LightShift Chemiluminescent EMSA Kit (Thermo 20148); buffer, salt, pH and temperature not stated). Details: protein: recombinant; tags: His (pET-32a); chain copies: 2; blunt.

Binding result, binds:
B1
B2
B3
B4
B5
B6
B7
